Assay results: patent US20240010750A1 (Bayer, published 2024)

Legend:
[1] = molecular target: T1, rabbit alpha2-Antiplasmin (rabbit (Oryctolagus cuniculus)); assay: cell-based or functional assay
T1 chain: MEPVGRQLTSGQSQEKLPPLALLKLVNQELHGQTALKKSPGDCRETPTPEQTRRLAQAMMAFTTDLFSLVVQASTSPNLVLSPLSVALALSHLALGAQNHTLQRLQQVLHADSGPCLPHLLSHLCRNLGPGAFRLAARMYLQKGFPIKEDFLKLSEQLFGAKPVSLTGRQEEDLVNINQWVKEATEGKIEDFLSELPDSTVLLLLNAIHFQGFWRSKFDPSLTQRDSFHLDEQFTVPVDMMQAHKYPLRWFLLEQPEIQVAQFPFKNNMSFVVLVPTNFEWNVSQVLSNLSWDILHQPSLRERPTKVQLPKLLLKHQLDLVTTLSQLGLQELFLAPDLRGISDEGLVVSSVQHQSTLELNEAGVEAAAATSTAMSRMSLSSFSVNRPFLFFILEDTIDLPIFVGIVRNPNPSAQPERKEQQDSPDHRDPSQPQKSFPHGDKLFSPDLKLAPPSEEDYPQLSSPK

human alpha2-Antiplasmin = molecular target: T2, human alpha2-Antiplasmin (human, UniProt P08697 40-491); assay: cell-based or functional assay
T2 sequence: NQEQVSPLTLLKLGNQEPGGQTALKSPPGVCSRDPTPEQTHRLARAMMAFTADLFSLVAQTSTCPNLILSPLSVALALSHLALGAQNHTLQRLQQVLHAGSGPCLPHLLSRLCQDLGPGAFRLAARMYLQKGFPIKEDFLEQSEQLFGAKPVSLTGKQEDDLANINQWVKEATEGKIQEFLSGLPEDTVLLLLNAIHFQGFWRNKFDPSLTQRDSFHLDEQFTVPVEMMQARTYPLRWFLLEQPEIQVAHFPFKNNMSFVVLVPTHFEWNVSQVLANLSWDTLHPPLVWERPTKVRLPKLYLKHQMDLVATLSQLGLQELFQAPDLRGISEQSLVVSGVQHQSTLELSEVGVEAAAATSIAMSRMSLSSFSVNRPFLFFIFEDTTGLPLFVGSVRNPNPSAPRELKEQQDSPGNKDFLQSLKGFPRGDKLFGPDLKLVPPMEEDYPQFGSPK

[2] = molecular target: T1, rabbit alpha2-Antiplasmin; assay: ELISA (Example 3): antigen coated at 1 ug/ml, detection with anti-human lambda light chain-peroxidase and Amplex Red, RFU [right panel]
Experimental: A standard ELISA format was used for analyzing the binding affinity of Fabs of this invention to human and rabbit alpha-2-Antiplasmin, respectively. Antigens were coated to black 384 well Maxisorp microtiter plates (Nunc; catalogue number 460518), diluted to a concentration of 1 μg/ml in 1× Coating Buffer (Candor Bioscience; catalogue number 121125). Plates were incubated overnight at 4° C. After overnight incubation, plates were washed 2× with 50 μl/well using PBS+0.05% Tween 20. Following this, 50 μl/well of blocking buffer (Smart Block; Candor Bioscience; catalogue number 113500) was added and the plates were incubated for 1 hour at room temperature. Afterwards, plates were washed for 3× using […] PBS+0.05% Tween 20 buffer. Fabs of this invention were added at different concentrations in a final volume of 30 μl/well. Plates were incubated for 1 hour at room temperature. Following this incubation step, plates were washed for 3× using 50 μl/well of a PBS+0.05% Tween 20 buffer. For the detection of bound Fabs and full-length antibodies, the anti-Human Lambda Light Chains (Bound and Free)—Peroxidase antibody (Sigma; catalogue number A5175) was diluted by the factor of 1:10.000 in 10% Blocking Buffer. […]
For measurement, the Infinite f500 reader (Tecan) was used. Measurement mode: Fluorescence; Top reading; Ex 535 nm; Em 590 nm.

human Plasmin = human Plasmin (human, UniProt P00747 97-580; P00747 581-810, limits assumed); assay: cell-based or functional assay
[3] = molecular target: T3, A2AP peptides with the consensus motif SRMSLSS (human); assay: PEPperCHIP peptide microarray, antibody at 1 µg/ml
T3 construct: Consensus motif shared by the reacting peptides of the PEPperCHIP arrays (linear 15-mers; cyclic 7-, 10- and 13-mers closed by a thioether)
T3 peptide: SRMSLSS
Experimental: Antibodies were incubated on the Microarray in concentrations of 1 μg/ml, 10 μg/ml and 100 μg/ml in incubation buffer. Incubation time was 16 h at 4° C. and shaking at 140 rpm.
As secondary antibody the goat anti-human IgG (Fc) DyLight680 was used at a dilution of 1:5000. This detection antibody was incubated on the Microarray at 45 min staining in incubation buffer at room temperature.
Microarray image analysis was done with PepSlide® Analyzer. A software algorithm was used to break down fluorescence intensities of each spot into raw, foreground and background signal, and calculated averaged median foreground intensities and spot-to-spot deviations of spot duplicates. Based on averaged median foreground intensities, an intensity map was generated and interactions in the peptide map highlighted by an intensity color code with red for high and white for low spot intensities. Averaged spot intensities of the assays were plotted with the antibody samples against the antigen sequence from the N- to the C-terminus to visualize overall spot intensities and signal-to-noise ratios. The intensity plots were correlated with peptide and intensity maps as well as with visual inspection of the microarray scans to identify the epitopes of the tested antibodies.

human Plasmin, sequence (P00747 97-580 limits assumed, chain 1 of 2): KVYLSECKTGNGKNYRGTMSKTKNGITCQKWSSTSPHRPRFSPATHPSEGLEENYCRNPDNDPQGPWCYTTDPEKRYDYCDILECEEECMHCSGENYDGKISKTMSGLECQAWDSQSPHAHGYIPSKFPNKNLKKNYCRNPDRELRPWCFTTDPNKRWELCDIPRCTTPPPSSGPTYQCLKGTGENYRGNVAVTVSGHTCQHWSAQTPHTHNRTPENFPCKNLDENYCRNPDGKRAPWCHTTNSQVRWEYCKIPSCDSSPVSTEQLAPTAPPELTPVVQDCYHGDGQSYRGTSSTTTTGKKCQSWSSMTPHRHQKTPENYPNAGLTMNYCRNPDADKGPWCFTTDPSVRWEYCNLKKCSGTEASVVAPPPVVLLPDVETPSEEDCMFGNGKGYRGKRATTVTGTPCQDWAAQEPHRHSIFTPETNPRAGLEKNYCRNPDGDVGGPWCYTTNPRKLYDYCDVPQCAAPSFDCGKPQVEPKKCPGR
human Plasmin, sequence (P00747 581-810 limits assumed, chain 2 of 2): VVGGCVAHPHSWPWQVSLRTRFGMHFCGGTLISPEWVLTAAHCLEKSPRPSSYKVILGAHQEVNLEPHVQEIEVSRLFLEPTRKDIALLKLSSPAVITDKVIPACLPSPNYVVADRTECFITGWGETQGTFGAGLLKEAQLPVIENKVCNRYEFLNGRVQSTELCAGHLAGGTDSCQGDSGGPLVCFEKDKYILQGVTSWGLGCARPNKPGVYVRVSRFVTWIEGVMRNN

function blocking activity EC50 (FIG. 5 legend) [1]: 1.4 nM
printed as 'binding activity' in the sentence on function blocking (IC50), 1st exp. [1]: 14 nM
printed as 'binding activity' in the sentence on function blocking (IC50), 2nd exp. [1]: 13 nM
printed as 'binding activity' in the sentence on function blocking (IC50), 3rd exp. [1]: 15 nM
function blocking activity IC50, 1st exp. (FIG. 5) (human alpha2-Antiplasmin): 170 nM
function blocking activity IC50, 2nd exp. (human alpha2-Antiplasmin): 180 nM
function blocking activity IC50, 3rd exp. (human alpha2-Antiplasmin): 180 nM
EC50 (read off the curve) [2]: ~6 nM
IC50 [M], inhibition of plasmin proteolytic activity (human Plasmin): > 1e-05 M
signal-to-noise-ratio at 1 µg/ml [3]: 659
B1: TPP-12387 hIgG1 (antibody, V domains shown)
VH: EVQLLESGGGLVQPGGSLRLSCAASGFTFDDYAMSWVRQAPGKGLEWVSAIGTGGGTYYADSVKGRFTISRDNSKNTLYLQMNSLRAEDTAVYYCAREYYDSSGYYHLDYWGQGTLVTVSS
VL: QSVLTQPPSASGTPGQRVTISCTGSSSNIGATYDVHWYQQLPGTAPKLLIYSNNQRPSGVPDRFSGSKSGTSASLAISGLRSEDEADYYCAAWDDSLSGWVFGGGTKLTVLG
notes: Fully human IgG1 lambda from the BioInvent n-CoDeR Fab lambda library; parental lead antibody
